Test results from the PETadex activity labels.

B1: unnamed (protein)
chain: MNKSILEKMVVGTSALLFSLSAFSFTPDPTPDPDPEPEPCQGECDFTRGPAPTSSYLEASSGPYSVDTVGVSRSVSGFGGGTIYYPTSTSGTMGAIAIVPGFLAGESSISWWGPRLASHGFVVITIATNSTFDQPASRSTQLSRALDYVVSQSNSNSSPISGKVDSTRLGAMGWSMGGGGALRLASGNRLAAAIPLAPWNTGSNSFNQIDTPTLIFACENDTTARVGTHASPFYNRIPASTDKAYLEINNGSHSCANGGGSNGGLLGKYGVSWMKRFIDEDTRYSQFLCGPNHEANSAISEYRETCNY
B2: unnamed (protein)
chain: MVRGVRAALRLASLVAVAVLPACGSGGGSSPTPASTPMATPIAPTPAPTLAPAPPTSPPFTRGPAPSTSALEATEGPFAVAQLTIDRTAAAGYGAGTVSYPTDTREGPFGAIAVSPGYTGVQRSMQWFGPRLASHGFVVIVIDTLSLTNNAEARAAQLIAALNQLIALSGTSGHPLQGKVDGNRLGVIGHSYGGGGALVAARDNPALKAAVPLAPFYESNDFSRLTVPTLVVGCQRDTVAAVSQRAIPMYESIPASVSKAYLELAGGDHLCVETGNGNKAIQGKYTVAWMKRFLDDDVRYSPYLCGSPHQADLAGDAVSAYRETCPY
B3: unnamed (protein)
chain: MMKSIIARLAIGTSVLLFSVSAFSFTPGPTPDPDPDPNPNPCEVDCDFSRGPNPTASYLEAASGPYTVRTMRVSSSVTGFGGGTIHYPTGTTGKMGAIAVVPGFLAGESSISWWGPRLASHGFVVITIATNSAFDQPASREAQLGRALDYVIAQSNASGNAISGMVDSSRVGAMGWSMGGGGTLRIASGGRLSAAIPLAPWHTGSNDFNQISTPTMIIACENDGTAPVNSHASPFYNRIPASTDKAYLEINNGGHSCANGGGSNGGLLGKYGVSWMKRFIDKDTRYNQFLCGPNHASNSAISEYRETCNY
B4: unnamed (protein)
chain: MRTRGTRPLRRLAAIFLLALVIAACDTKGPDPTEQILTASSGPFGVATLAVPSSAGFGGGTIYYPTGVEGPFAVISVTPGFTETAASLDWGPRLASHGFVAIVINTSNIFEDPTTRSNEQRQALTYAAAQSDSASSPIHGLVDGNRRGVTGHSMGGGGTLISAQADPAIRAAVPLAPWNGSPTFSGITVPTLFIACQNDVIAPVANHASPMYNSIPASTHKSYLSIAGGDHFCANAASGGSGQVGKFVVAFFKRFLDGDTRYDPWVCGASKPAVTSVINEVRSTCPF
B5: unnamed (protein)
chain: MNALSWTPSPTPNPDPTPDPTPCQGDCDFTRGPNPTLSSVATMGPYSVSTQSVSSSVSGFGGGTIHFPTNTAGTMGAIAVAPGFLSPESSIKWWGPRLASHGFVVITIATNSVFDQPNSRETQISRALDYVINQSNSSNSAISGMVDNTRVGAMGWSMGGGGALRLASGDRLSAAIPLAPWHQGSNSFNQLETPTLIIACENDVVAPVNNHASPFYNAIPSTTDKALLEINNGAHSCANGGGTNGGLLTKYGVSWMKRFIDNDLRYDQFLCGPDHAANNAVSEYRGTCNY
B6: unnamed (protein)
chain: MKHDRRYRWGRLAGLAALLLAPVAAQAQTVLFSEDFEGGLGAFSAGGNVFTATVFNGTSGVRLRGGSSDGVITSPPISTEGFSEVTLFFERTTDGSLDFGEFGIAEVSVDGGATFAVVEATQGGPAAVSIPLGAAAADQAAVVLRFRIAASSFFEDIEVDNVVLEGVGSGDPGPGPDPDPGPDPDPDPDPEPEPDNPFARGPDPTEATLEASSGPFAVDSFRPSSTPGFGAGTIWYPSGTNEGPFAAIAVAPGFVGGESTIDWLGSRLASHGFVVITISTSSLFDFPDSRASQLLAALDIVIAESNGSSPISGLVDPDRTGLSGHSMGGGGSLIATEDHPSIDAVVPLAPWNPSTNFSAIDQPTLIVACENDTVAPVNQHASPMYESISSSVDKAFLEIDGADHFCVNSGNAQQDTLGKFIVSWMKRFLDQDTRYDPFLCGPDHEADPDISEFRDTCPF
B7: unnamed (protein)
chain: MFDDMNHTTQSKFSRLLQVSLATSALALSLGVQAQQTGADPTTASIEQAGPLAVANVKVATPSGYGSGTVYYPTTGSAYGLVSVTPGFTEGQSAINWLGPLLASHGFVVVTIGTKTILDVPTNRAKQMMAALAQVTALSATKTSPFAGKVDASRLAVMGHSMGGGGSLDAARDNPNLKASIPLAPWETTKDYSKTTVPTLIVSCESDAIAPVKDHANKFYDSFTPTLTKALLEMKGASHFCTNSSANAATKTLIGKYSISWLKRFVDGDTRYSPFLCGAPHQADLAGSLISTYKENCPY

Substrate: BHET
Settings: 120 h

Row | Protein | plate clearing
1 | B1 | not clears the plate
2 | B2 | not clears the plate
3 | B3 | not clears the plate
4 | B4 | not clears the plate
5 | B5 | not clears the plate
6 | B6 | not clears the plate
7 | B7 | not clears the plate
